assay: soluble on expression in E. coli; label from the status in PepcDB or PDB records

Soluble on expression in E. coli, not soluble:
MGSDKIHHHHHHMAYRSAPIADDIIWRAAPQPEDASLADAVRETIASTRKHLLDFIRLDETPPPAAMTLAQWTRPATFRSLLAAYSDHIYRHTPGLPRENKPLLSLWAQWYIGLMTPPLMLALLTQARAINVSAEHIHVEFHETGRAACFWLDVHQDNLATERSPEERMETLIVSALQPVIQALEATGDINAKLIWSNTGYLINWYLTEMKPLLGEALLATLRQRCFFEKQLSDGQDNPLWRTVVMRDGLLVRRTCCQRYRLPDVQQCGDCTLK, MGSDKIHHHHHHMCVEGLTSSGSVNWHDAWLTLSDGVKLVARLWIPKGEGPWPALVMRQPYGRALASTVTYIHPGWWASHGYLVVVQDVRGQGDSEGHFNGFLQEASDTSQTHAWVRELPECNGRLGTYGFSYQGLTQLLAEPGTPPPDCLAPAMAGVDERNHWSCEGGAHWWHLGLAWGLQLAALQARRCGNWEAWRELRRSLEDDSYLYEGPALLKRHDPDGMSFRWLHQANQNDHGWVVHKPLDSWLRQPMLLLGGWWDPHLNGLLDLYQRSSQVGGSPELHIGPATHLQWWPDAQQLQLEFFDRHLKSSKALTNSRPHGRIWNITSCSWQTFASPTQTTTSANASWSLVSGGMACLDPSEGTLHQNKKGGGVVYVVHDPWRPVQSVGGHLSPKPGVAERSALDQRADVATFTSTALQEPLQLNGIPLLQLTVQSDQPGFDLCVALSIVNCNHSEVKQLSTGFLRVQGEQALRMLPRKVKLQPILADLERGEHLRLSLAGAAWPAIGVNPGHDRHPCGPPGPHCQVVTMTLQLNGSKLRFLSWNSGKIDFDLPQEF, MGSDKIHHHHHHMDCSKASTDTEKMICASSRLQQLDAVLNKAYQGYVKKADKAQARQEQRTWLAERDRCKDDVCLGNEMVSRIQALSGSENISVITQASGQWDFILSVATCNLDSSYSTCEGPGTLDIFKKGSGDLFQRITMENLFIELNNKGEVTANLVEVYGENNSGLVIDDANFDHHADIMLRNGNNGAYGGPSYDVYLFDVEKQQFTQNAPLTELASSNLGLFDIDEKSKTITTFTKSGCCWHQWSAYQMANNKPVLIVETTEAYSEEKQAMVATTRELVSGKWKVKEEIVKIDEQ, MGSDKIHHHHHHMDDTDWIGETFTSTVGWDHLETLVDIGNRMAGSGGERAAAEATRDALAEYTRDARLSEFGIQGWERGDSAVHAGGSPVATQAHECIALPRSPAGEVTGELVDVGHGLPEDFEDADCEGQIVLARSDVPDWYDRYIHRREKYYHAVEAGAAGFIYRNHVDGVLPPTGSVGTADAPIGEIPAIGVASETGARLARRYAGENVTLSVDCETPKATSQNVHAELGPDTDERLLVTSHADAHDIAEGAMDNGAGTAMVVEVARALAGREDELATRVEFVAFGAEEVGLVGSNRLAGETTLDDVTAVLNFDGVVQGRTLKCYTHGFDALTAAAEDVADRLDHPISLTPEQGPHSDHWPFVQRGVPGYHVTSETGGEGRGWGHTHADTLDKLEPRTFREQAVLLTELAVALADDSARPAHKDPAEIANALEAQNLAEGMRITGDWPFGD, MGSDKIHHHHHHMDFIEVYPNALPNDLCDRLILAFEQHAGVVDGQTGNGVDLEKKISRDLTLDSFADLQPLKNELLGYTLKGTVDYFTKYSMALMGAVAVSVSDEQGQPVTLTPANFAALGAPRSDGLVKYLYRSGSINVQKYQQNKGGYPHWHSEQFPQNGHNEALHRVVLYMFYLNDMEEGGETEFYYQQRKISPKKGTMVIAPAGFTHTHRGNKPVSGDKYIATSWIMFNRAEQLYAVIA, MGSDKIHHHHHHMDGVKCQFVNTNGITLHVAAAGREDGPLIVLLHGFPEFWYGWKNQIKPLVDAGYRVIAPDQRGYNLSDKPEGIDSYRIDTLRDDIIGLITQFTDEKAIVIGHDWGGAVAWHLASTRPEYLEKLIAINIPHPHVMKTVTPLYPPQWLKSSYIAYFQLPDIPEASLRENDYDTLDKAIGLSDRPALFTSEDVSRYKEAWKQPGALTAMLNWYRALRKGSLAEKPSYETVPYRMIWGMEDRFLSRKLAKETERHCPNGHLIFVDEASHWINHEKPAIVNQLILEYLKNQ, MGSDKIHHHHHHMDIGHRMKELRIQYGLTQQELADRAELTKGFISQLERNQNSPSVGTLLDIIQCLGMTPAEFFTDSEPEQIVYKANDYFEKIDEEKNSKVEWIIPNAQTRSMEPVRLTLHPGGSSEIYLPQECEEFGYVIKGTVKLCYGGKVHTVKAGESFYFKAGKKHFIENKSSKDAMLIWVSNPPSF, MGSDKIHHHHHHMDIIVVGGGTSGLLSALALEKEGHNVIVFEKESYVGGLCRSEKIDGYSVDIGVHAITMLDNGPLIRLLNKYSRYLPNFRNYGDYYIRTDKLHRIPVSMHEWMTTPVIPNKDKVLITSKIMDLMTMGFTKDASVYDFVKEMGLSSTSVDFFNTIAYFLSGEDLENTPLWRFFTGAGYIPEDDILPFIYKDMKINPLKSTLVKKFGTERIINILNDGFISSIKNGSKKYINKFMTEHRYSTQGYPVGGVQSICNCITYSLRNTQIKNEEVKKITKNGKKYTVKTSEGEYTSDIIVYSAPAITLPKVAKINKIQKNKEKLSNIKFTKSTTVWIGDEKNYFPYLGSEIWIDNPCWASTVSNYDESLAPKGKHLMGFSFVNSKKEDALKTIESKLNLNTDKVDMLYVQETVPEQASCSIGQFFVYPKIDDTFFVVGTDSDPRSMGITRAAYSVEVMLSEFKNIYDTQKETAKK, MGSDKIHHHHHHMDIKVITRHAPSNYGSLLQSIATITTLERLGHKCEIIDYIRDDEHGLSAVKTNLNNKQRWSGNSLKKLAYIVLRYPEEKKAELNFREMRRKYLKLTQLCRTHDDLKRLDADIFMTGSDQVWGPTLNGHYDEAYFLSFVKDKRKIAYAASLGRTDFTAKILSEYKKLLSSYSGIAVRENTAVGLLRQMDIECAGQVLDPTLLLTGDEWSRMIKKDMGGKYVLVYQLHNNPALSKYAVRFAEHVGLPLYRVSPTFHQIRRGGKFIYLPDLPDFLSYIKNSTYFITDSFHGTAFALNFNRQFIEILPNNKTGNRNQSILQLTRLQDRIVTDYADCSISERMIDYERVNDILRKERIRSLGILKQLLRQ, MGSDKIHHHHHHMDINTKNLKKNAFRVTKRRGITASRIRVPGGHLEAKFLSMIQNIAENYGDGSVHITSRQGFEIPGIKFEDMPKVNELLQPIIEGLNINQETALQGYSASGTRNITACVGNRVCPYGCYDTTSFAQRIEKAVFPHDLHFKIALTGCPNDCAKVRMHDFGIMGMTEPHYESDTCVSCGACVKVCKKKSVGALSAVNYKVVRRGEKCIGCGECVLKCPTGAWTRSEKTYYRLTLLGRTGKKNPRLGEDFIKWVDEDSIIKIILNTYDYVTKYIDPNAPGGKEHIGYIVDRTGFEEFKKWALKDVKLPSIAEVYTPIYWNGIKY, MGSDKIHHHHHHMDKFKTIALFMSTIETGSFSATAKKHATDPSTVSKAIKRLEEQLGLQLLYRSTRQLSLTSAGQKYADTVGSLYQQLESCEHELKSANNSYSGALKINLPVSYGRVYMLPMLSRFKKAYPDIELEVSFNDQYVDMISDAVDVSIRSGTLNDSRLVAQKLSPMAFVICASSDLLATRKVDISNEGLVALPWVLFRFKQTGKTMPINFSYQGCHIDIEPKKVTIVDDGETMAQMCAEGLGLSLMPHFNAKALVVAGKMKVVAILDEFPSSGVFIVYPKRKDLPRRTQVFIEFVKDYLKEIGETPSKTWLDTSINSS, MGSDKIHHHHHHMDMTFKLQVFEGPLDLLLYLIEKNKVNIYDIPIVEITAQYMEYVNQMKKDNLDTLSEFLVMAATLLDIKSKMLLPKKEEEEQEQEDPRAELVQQLLEYKMYKCMANELKDRQLDAGKVWYKKKDIPDEVLAYEEPVNLEELVGDIRLSDLNRIFQSIMKRQEEKIDKVRSKFGKIEKEEVSLEEKMEYLTDYAASHKHFSFRGMLTASSSKVEVIVTFLAILELMKTGKLTIVQEHIFDDIRIESRIAA, MGSDKIHHHHHHMDNPVMSAITSLYPQVQFLQRQAASLLLYQSVLQTDVGIAFQELLQAIRYADADARGSLQAYGNYFHALATRKQNWEDYLVSQILIAENPFSKVTQQQDFKDLPPALISAVKHDLQVLQSLYECNSAVLSQWVQAVAHLPISPVVWYLEQDDMGSETALSLHHLEHWADAVEELATHYQKFGIGLFAQYRALRWQDGEFVGIPYPDPVKLGTLVGYESQQEALLKNTEFLLSGEKALHVLLYGSRGAGKSSLVKALLNEYSHRQLRLLEVSKADLKDLPKIVEQLRGVPQKFIIFVDDLSFEEDDDAFKALKVVLEGNLTARPHNVVVYATSNRRHLIREFFADRPSLKNNEEVHAGDTMQEKLSFSDRFGLTLTFESADQSTYLKIVRHLATQAGISISPEELEYQALQWATRHNGRSGRTAQQFIDFLKADTSVFATNNSILDTQS, MGSDKIHHHHHHMDQDDASPISSGVEGLDYVLRGGYAKYRSHLVEGRPGSGKTTLGLQFLIKGAAAGEKCLYITLSESRRELQSVAVRHGFSLDGIEILELVPPELSLDPSQLQTLVHSSDLELGETVQAALAEIERMKPDRVVFDSLSEIRLLSQGSLRYRRQVLALKSFFLLNNATVLLLDDLTAEHDDLNLHSISHGVIRMEQLSPIYGGERRRLRIIKMRGVQIRGGFHDFVIRPGGVMVFPRLVASEHEMAEHGTPATGNGSVDTLVGGGLDRGTSTLLMGPSGVGKSTIACSYCHSALKRGEHVLVLLFDETKRIFLARASGLGMDLGPFADNGNLLLEQIDPAELSPGELSSRIQSAVERSSARIVVIDSLTGYLNAMSEEQHLVLQMHEILTYLNQKGVVTILLLANHGLIGQMSAPVDMTYLCDSVMLLRFFESGGRLRRAISVVKKRVGPHEDTIREFKISATGLAVGEPLEEFRGILTGVPTYEGKQGNLLQDKAS, MGSDKIHHHHHHMDRINYKHLHYFWHVARAGSVTRAAGQLNVSMQTISGQITKLEQQLGRSLFRQQGRGLALTEAGRLALDYADRIFLLGEELETALADPLLDQTLRLAAGISDVVPKGIASRLLRPALRTNGRLRLSCGEGDFDELIGELGRHRLDLVLADRPVASGEQQQFQSWPLLRCPVQLLAAPELHARCQAGFPASLEQAPLLLPSRDNVLRRQLEHWFDANGVRPDLVGEFDDHALMETFARQGLGLLPAPVSPDGEADHPGLLPLGALDGVWEHYYVTASRRKLQHPALQAILQAWT, MGSDKIHHHHHHMDRSYRTPKAWLTKTSGFLQGYDYSLNPYVGCTFACSYCYVRKMPVALFHKGEWGDWVDIKQGVKETFSNELVRAKKRGRVHLFMSSSTDPYQPVEVEEKVTRSLLEVMADNPPDFLFVQTRSPLVTRDVDILQQLGKRVRVSLTIETDLESVRKAFAPKAPPIQGRKRALHALYQAGIPTQLTVAPILPSSDRFAESYVSIADQVCIDTFELGDGANGKRSRALRMPERLTELGYESWYEEAALEKVHQQFCAHFDESRVKLSQEGFLP, MGSDKIHHHHHHMDSEIIKALKRFGFTQQESIMYVTLCRHGALTGYEAAKLAGISRSNAYAALSSLVEKGGAVVASDDTSKYVPTPRKELLVTIRRHCDETLEFLEQHLPEEQPVEMPYLTVTGYQNTMDKVRNMLRLAQLRVYISMHSGNAAQLKEDMAACAARGLKVVILSDADPQISGAIFMHNAAGTGHIKLIADTREVITGVVDQAARTGQCLYSANEHLVYLMREALLNEIELIKIRSGMSGAEPEESPTRGK
